Test results from PMC10743139, “Discovery and Engineering of a Novel Bacterial L-Aspartate α-Decarboxylase for Efficient Bioconversion” (Foods, 2023).

Legend:
N[C@@H](CC(=O)O)C(=O)O = assay: HPLC of beta-alanine, Michaelis-Menten fit; type: biochemical, Corynebacterium jeikeium; settings: sodium L-aspartate 1-100 mM, pH 7.0, 37 °C, 5 min
Excerpt: HPLC of beta-alanine, Michaelis-Menten fit on CjADC (CorJei), L-aspartate α-decarboxylase from Corynebacterium jeikeium

purified protein = substrate: N[C@@H](CC(=O)O)C(=O)O; assay: purified protein; settings: sodium L-aspartate 1-100 mM, pH 7.0, 37 °C, 5 min

Molecule: CjADC (CorJei), L-aspartate α-decarboxylase from Corynebacterium jeikeium (Corynebacterium jeikeium K411; C26V/I88M)
- Km (N[C@@H](CC(=O)O)C(=O)O): 3.6 ± 0.2 mM

Molecule: CjADC (CorJei), L-aspartate α-decarboxylase from Corynebacterium jeikeium (Corynebacterium jeikeium K411; C26V/I88M/R3K/Y90F)
- Km (N[C@@H](CC(=O)O)C(=O)O): 2.2 ± 0.5 mM
- kcat (N[C@@H](CC(=O)O)C(=O)O): 209.2 ± 0.8 s⁻¹
- kcat/Km (N[C@@H](CC(=O)O)C(=O)O): 95100 ± 1600 M⁻¹ s⁻¹

Molecule: CjADC (CorJei), L-aspartate α-decarboxylase from Corynebacterium jeikeium (Corynebacterium jeikeium K411; C26V/I88M/Y90F)
- Km (N[C@@H](CC(=O)O)C(=O)O): 2.6 ± 0.6 mM
- kcat (N[C@@H](CC(=O)O)C(=O)O): 171.5 ± 0.8 s⁻¹
- kcat/Km (N[C@@H](CC(=O)O)C(=O)O): 61200 ± 1300 M⁻¹ s⁻¹

Molecule: CjADC (CorJei), L-aspartate α-decarboxylase from Corynebacterium jeikeium (Corynebacterium jeikeium K411; C26V/Y90F)
- Km (N[C@@H](CC(=O)O)C(=O)O): 4.1 ± 0.3 mM

Molecule: CjADC (CorJei), L-aspartate α-decarboxylase from Corynebacterium jeikeium (Corynebacterium jeikeium K411; I88L/Y90F)
- Km (N[C@@H](CC(=O)O)C(=O)O): 3.9 ± 0.1 mM
- kcat (N[C@@H](CC(=O)O)C(=O)O): 88.6 ± 2.8 s⁻¹
- kcat/Km (N[C@@H](CC(=O)O)C(=O)O): 22700 ± 500 M⁻¹ s⁻¹

Molecule: CjADC (CorJei), L-aspartate α-decarboxylase from Corynebacterium jeikeium (Corynebacterium jeikeium K411; I88M/Y90F)
- Km (N[C@@H](CC(=O)O)C(=O)O): 3.2 ± 0.4 mM

B1: BacThe, ADC from Bacteroides thetaiotaomicron (Bacteroides thetaiotaomicron VPI-5482) (protein)
chain 1: MMIEVLKSKIHCARVTEANLNYMG
chain 2: SITIDEDLLDAANMIPGEKVYIADNNNGERFETYIIKGERGSGKICLNGAAARKVQPDDIVIIMSYALMDFEEAKSFKPTVIFPDPATNSVVK
- Km (purified protein): 8.9 ± 0.4 mM

B2: BsADC (BacSub), ADC from B. subtilis (Bacillus subtilis subsp. subtilis str. 168) (protein)
chain 1: MYRTMMSGKLHRATVTEANLNYVG
chain 2: SITIDEDLIDAVGMLPNEKVQIVNNNNGARLETYIIPGKRGSGVICLNGAAARLVQEGDKVIIISYKMMSDQEAASHEPKVAVLNDQNKIEQMLGNEPARTIL
- Km (purified protein): 4.2 ± 0.3 mM

B3: LisMon, ADC from Listeria Monocytogenes (Listeria monocytogenes EGD-e) (protein)
chain 1: MFRTMMNGKIHRATVTEANLNYVG
chain 2: SITIDSAILEAVDMLPNEKVQIVNNNNGARIETYIIPGEPGSGVICLNGAAARHVQVGDVVIIMSYGMFTDEEAKTHEPKIVVLDEKNHIEMILPEEKAHTTL
- Km (purified protein): 6.0 ± 0.2 mM

B4: CorGlu, ADC from Corynebacterium glutamicum (Corynebacterium glutamicum ATCC 13032) (protein)
chain 1: MLRTILGSKIHRATVTQADLDYVG
chain 2: SVTIDADLVHAAGLIEGEKVAIVDITNGARLETYVIVGDAGTGNICINGAAAHLINPGDLVIIMSYLQATDAEAKAYEPKIVHVDADNRIVALGNDLAEALPGSGLLTSRSI
- Km (purified protein): 4.5 ± 0.1 mM

B5: CjADC (CorJei), L-aspartate α-decarboxylase from Corynebacterium jeikeium (Corynebacterium jeikeium K411) (protein)
chain 1: MLRTMLKSKIHRATVTQADLHYVG
chain 2: SCTIDADLMEAADILEGEQIDIVDIDNGNRLTTYAITGDRGTGVIGINGAAARLISPGDLVIIIGYAQYSEEDLKNYASRVVFVDGNNKQVELGGDPAQVPDGSGLKNPRHPEA
- Km (purified protein): 3.6 ± 0.2 mM
